B1: CDH17v1/TR2v1 (bispecific antibody, human IgG1, kappa)
heavy: not shown
light: DIVMSQSPSSLAVSVGEKVTMSCKSSQSLLHSSNQKNYLAWYQQKPGQSPKVLIYWASTRESGVPDRFTGSGSGTDFTLTITSVKSEDLAVYYCQQYYSYPWTFGGGTRLEIKRTVAAPSVFIFPPSDEQLKSGTASVVCLLNNFYPREAKVQWKVDNALQSGNSQESVTEQDSKDSTYSLSSTLTLSKADYEKHKVYACEVTHQGLSSPVTKSFNRGEC
B2: CDH17v1/TR2v1-(IgG1 KO) (bispecific antibody)
heavy: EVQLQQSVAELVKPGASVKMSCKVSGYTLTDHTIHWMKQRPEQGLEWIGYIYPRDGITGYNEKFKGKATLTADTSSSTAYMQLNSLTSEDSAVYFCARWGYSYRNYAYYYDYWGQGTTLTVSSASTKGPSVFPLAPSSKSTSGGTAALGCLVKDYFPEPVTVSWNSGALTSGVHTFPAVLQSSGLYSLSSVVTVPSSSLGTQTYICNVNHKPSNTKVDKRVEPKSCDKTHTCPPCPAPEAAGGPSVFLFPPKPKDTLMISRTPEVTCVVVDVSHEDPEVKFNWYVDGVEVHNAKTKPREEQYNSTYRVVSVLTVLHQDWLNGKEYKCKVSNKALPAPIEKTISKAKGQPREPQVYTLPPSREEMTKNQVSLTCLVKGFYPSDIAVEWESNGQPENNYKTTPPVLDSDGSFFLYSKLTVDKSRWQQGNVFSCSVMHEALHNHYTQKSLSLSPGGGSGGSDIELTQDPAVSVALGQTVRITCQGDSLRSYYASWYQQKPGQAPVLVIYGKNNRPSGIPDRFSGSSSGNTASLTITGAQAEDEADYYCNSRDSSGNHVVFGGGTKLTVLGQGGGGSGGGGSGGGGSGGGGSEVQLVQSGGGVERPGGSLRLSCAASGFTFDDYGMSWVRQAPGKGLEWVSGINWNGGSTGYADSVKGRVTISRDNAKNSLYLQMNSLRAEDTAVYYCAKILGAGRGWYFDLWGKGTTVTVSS
light: DIVMSQSPSSLAVSVGEKVTMSCKSSQSLLHSSNQKNYLAWYQQKPGQSPKVLIYWASTRESGVPDRFTGSGSGTDFTLTITSVKSEDLAVYYCQQYYSYPWTFGGGTRLEIKRTVAAPSVFIFPPSDEQLKSGTASVVCLLNNFYPREAKVQWKVDNALQSGNSQESVTEQDSKDSTYSLSSTLTLSKADYEKHKVYACEVTHQGLSSPVTKSFNRGEC
B3: CDH17A6/TR2v2-(IgG1 KO) (bispecific antibody)
heavy: not shown
light: DIVMTQSQKFMSTTVGDRVSITCKASQNVGTGVVWYQQRPGQSPKLLIYSPSNRYTGVPDRFTGSGSGTDFTLTITNIQSEDLADYFCQQYSTYPWTFGGGTKLEIKRTVAAPSVFIFPPSDEQLKSGTASVVCLLNNFYPREAKVQWKVDNALQSGNSQESVTEQDSKDSTYSLSSTLTLSKADYEKHKVYACEVTHQGLSSPVTKSFNRGEC
B4: CDH17E2/TR2v2-(IgG1 KO) (bispecific antibody)
heavy: not shown
light: DIVMTQSQKFMSTTVGDRVNITCKASQNVGTAVAWYQQKPGQSPKLLIYSASNRYTGVPDRFTGSGSGTDFTLTITNMQSKDLADYFCQQYSSYPWTFGGGTKLEIKRTVAAPSVFIFPPSDEQLKSGTASVVCLLNNFYPREAKVQWKVDNALQSGNSQESVTEQDSKDSTYSLSSTLTLSKADYEKHKVYACEVTHQGLSSPVTKSFNRGEC
B5: CDH17E9/TR2v2-(IgG1 KO) (bispecific antibody)
heavy: not shown
light: DIVMTQSQTFMSTTVGDRVSITCKASQNVGTALAWYQQKPRQSPKLLIYSASNRFTGVPDRFTGSGSGTDFTLTISNMRSEDLADYVCQQYSTYPLTFGSGTKLEIRRTVAAPSVFIFPPSDEQLKSGTASVVCLLNNFYPREAKVQWKVDNALQSGNSQESVTEQDSKDSTYSLSSTLTLSKADYEKHKVYACEVTHQGLSSPVTKSFNRGEC
B6: CDH17v1/TR2#1-(IgG1 KO) (bispecific antibody)
heavy: not shown
light: DIVMSQSPSSLAVSVGEKVTMSCKSSQSLLHSSNQKNYLAWYQQKPGQSPKVLIYWASTRESGVPDRFTGSGSGTDFTLTITSVKSEDLAVYYCQQYYSYPWTFGGGTRLEIKRTVAAPSVFIFPPSDEQLKSGTASVVCLLNNFYPREAKVQWKVDNALQSGNSQESVTEQDSKDSTYSLSSTLTLSKADYEKHKVYACEVTHQGLSSPVTKSFNRGEC
B7: CDH17v1/TR2#2-(IgG1 KO) (bispecific antibody)
heavy: not shown
light: DIVMSQSPSSLAVSVGEKVTMSCKSSQSLLHSSNQKNYLAWYQQKPGQSPKVLIYWASTRESGVPDRFTGSGSGTDFTLTITSVKSEDLAVYYCQQYYSYPWTFGGGTRLEIKRTVAAPSVFIFPPSDEQLKSGTASVVCLLNNFYPREAKVQWKVDNALQSGNSQESVTEQDSKDSTYSLSSTLTLSKADYEKHKVYACEVTHQGLSSPVTKSFNRGEC
B8: CDH17v1/TR2#3-(IgG1 KO) (bispecific antibody)
heavy: not shown
light: DIVMSQSPSSLAVSVGEKVTMSCKSSQSLLHSSNQKNYLAWYQQKPGQSPKVLIYWASTRESGVPDRFTGSGSGTDFTLTITSVKSEDLAVYYCQQYYSYPWTFGGGTRLEIKRTVAAPSVFIFPPSDEQLKSGTASVVCLLNNFYPREAKVQWKVDNALQSGNSQESVTEQDSKDSTYSLSSTLTLSKADYEKHKVYACEVTHQGLSSPVTKSFNRGEC
B9: CDH17v1/TR2#8-(IgG1 KO) (bispecific antibody)
heavy: not shown
light: DIVMSQSPSSLAVSVGEKVTMSCKSSQSLLHSSNQKNYLAWYQQKPGQSPKVLIYWASTRESGVPDRFTGSGSGTDFTLTITSVKSEDLAVYYCQQYYSYPWTFGGGTRLEIKRTVAAPSVFIFPPSDEQLKSGTASVVCLLNNFYPREAKVQWKVDNALQSGNSQESVTEQDSKDSTYSLSSTLTLSKADYEKHKVYACEVTHQGLSSPVTKSFNRGEC
B10: CDH17v1/TR2#10-(IgG1 KO) (bispecific antibody)
heavy: not shown
light: DIVMSQSPSSLAVSVGEKVTMSCKSSQSLLHSSNQKNYLAWYQQKPGQSPKVLIYWASTRESGVPDRFTGSGSGTDFTLTITSVKSEDLAVYYCQQYYSYPWTFGGGTRLEIKRTVAAPSVFIFPPSDEQLKSGTASVVCLLNNFYPREAKVQWKVDNALQSGNSQESVTEQDSKDSTYSLSSTLTLSKADYEKHKVYACEVTHQGLSSPVTKSFNRGEC
B11: CDH17H2/TR2v2-(IgG1 KO) (bispecific antibody)
heavy: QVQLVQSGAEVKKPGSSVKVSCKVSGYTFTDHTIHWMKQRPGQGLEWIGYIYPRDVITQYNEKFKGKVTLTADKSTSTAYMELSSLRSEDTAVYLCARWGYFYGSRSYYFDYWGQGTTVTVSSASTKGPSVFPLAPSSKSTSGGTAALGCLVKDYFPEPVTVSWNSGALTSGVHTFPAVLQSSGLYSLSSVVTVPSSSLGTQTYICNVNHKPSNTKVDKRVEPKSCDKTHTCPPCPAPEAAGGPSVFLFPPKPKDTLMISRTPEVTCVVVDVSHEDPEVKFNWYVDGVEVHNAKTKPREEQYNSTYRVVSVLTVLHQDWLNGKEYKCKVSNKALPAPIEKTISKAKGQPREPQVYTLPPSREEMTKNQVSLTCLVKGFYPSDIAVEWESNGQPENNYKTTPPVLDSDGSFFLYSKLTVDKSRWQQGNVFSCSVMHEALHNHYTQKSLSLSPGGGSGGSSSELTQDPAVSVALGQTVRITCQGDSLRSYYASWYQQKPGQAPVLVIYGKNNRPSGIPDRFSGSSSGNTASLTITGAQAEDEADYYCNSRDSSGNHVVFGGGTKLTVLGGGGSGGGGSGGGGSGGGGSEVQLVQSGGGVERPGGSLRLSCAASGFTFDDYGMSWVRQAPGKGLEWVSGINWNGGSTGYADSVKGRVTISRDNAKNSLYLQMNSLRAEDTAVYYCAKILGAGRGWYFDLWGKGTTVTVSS
light: DIQMTQSQSSLSASVGDRVGITCKASQNVGTAVAWYQQKPGKAPKLLIYSASNRYTGVPSRFSGSGSGTDFTLTISSLQPKDFATYFCQQYSSYPWTFGQGTKLEIKRTVAAPSVFIFPPSDEQLKSGTASVVCLLNNFYPREAKVQWKVDNALQSGNSQESVTEQDSKDSTYSLSSTLTLSKADYEKHKVYACEVTHQGLSSPVTKSFNRGEC
B12: CDH17H2/TR2v3-(IgG1 KO) (bispecific antibody)
heavy: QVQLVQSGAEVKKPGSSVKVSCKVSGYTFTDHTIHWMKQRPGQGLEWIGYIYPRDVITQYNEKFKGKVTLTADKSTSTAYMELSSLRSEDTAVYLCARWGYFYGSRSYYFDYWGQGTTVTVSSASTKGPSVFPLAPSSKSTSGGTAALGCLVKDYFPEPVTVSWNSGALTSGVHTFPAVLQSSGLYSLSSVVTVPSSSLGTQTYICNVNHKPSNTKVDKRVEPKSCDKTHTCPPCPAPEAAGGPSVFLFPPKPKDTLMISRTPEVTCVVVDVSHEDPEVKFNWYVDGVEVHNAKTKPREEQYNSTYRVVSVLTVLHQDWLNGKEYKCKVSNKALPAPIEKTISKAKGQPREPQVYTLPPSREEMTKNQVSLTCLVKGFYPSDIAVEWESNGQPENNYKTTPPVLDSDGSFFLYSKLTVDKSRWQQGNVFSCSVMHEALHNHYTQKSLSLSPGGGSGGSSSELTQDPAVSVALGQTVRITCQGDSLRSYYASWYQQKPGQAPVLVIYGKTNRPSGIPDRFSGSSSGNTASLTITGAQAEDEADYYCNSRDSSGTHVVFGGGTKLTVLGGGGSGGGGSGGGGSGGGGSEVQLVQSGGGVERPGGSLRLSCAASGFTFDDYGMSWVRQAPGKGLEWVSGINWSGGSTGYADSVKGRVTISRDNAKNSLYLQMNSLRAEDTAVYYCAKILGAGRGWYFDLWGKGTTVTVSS
light: DIQMTQSQSSLSASVGDRVGITCKASQNVGTAVAWYQQKPGKAPKLLIYSASNRYTGVPSRFSGSGSGTDFTLTISSLQPKDFATYFCQQYSSYPWTFGQGTKLEIKRTVAAPSVFIFPPSDEQLKSGTASVVCLLNNFYPREAKVQWKVDNALQSGNSQESVTEQDSKDSTYSLSSTLTLSKADYEKHKVYACEVTHQGLSSPVTKSFNRGEC
B13: CDH17H2/TR2v4-(IgG1 KO) (bispecific antibody)
heavy: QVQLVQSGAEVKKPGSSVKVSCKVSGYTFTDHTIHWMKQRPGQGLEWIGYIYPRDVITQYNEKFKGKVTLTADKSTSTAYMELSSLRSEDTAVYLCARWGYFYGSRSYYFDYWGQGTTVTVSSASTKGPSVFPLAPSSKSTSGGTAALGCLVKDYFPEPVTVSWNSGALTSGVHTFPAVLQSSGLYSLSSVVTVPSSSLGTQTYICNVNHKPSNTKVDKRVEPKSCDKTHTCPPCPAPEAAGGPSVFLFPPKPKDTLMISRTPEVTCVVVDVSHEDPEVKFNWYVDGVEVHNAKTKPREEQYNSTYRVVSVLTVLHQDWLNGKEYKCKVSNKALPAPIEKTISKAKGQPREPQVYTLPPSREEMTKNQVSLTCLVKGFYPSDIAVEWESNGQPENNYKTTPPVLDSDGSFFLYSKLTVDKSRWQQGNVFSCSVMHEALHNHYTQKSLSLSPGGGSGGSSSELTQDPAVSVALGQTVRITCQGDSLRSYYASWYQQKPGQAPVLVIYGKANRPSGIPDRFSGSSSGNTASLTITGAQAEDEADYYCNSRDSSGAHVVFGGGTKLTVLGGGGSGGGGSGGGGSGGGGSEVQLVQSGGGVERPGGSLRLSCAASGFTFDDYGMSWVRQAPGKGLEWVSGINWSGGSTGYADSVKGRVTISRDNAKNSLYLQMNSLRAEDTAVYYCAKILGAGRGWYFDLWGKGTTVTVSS
light: DIQMTQSQSSLSASVGDRVGITCKASQNVGTAVAWYQQKPGKAPKLLIYSASNRYTGVPSRFSGSGSGTDFTLTISSLQPKDFATYFCQQYSSYPWTFGQGTKLEIKRTVAAPSVFIFPPSDEQLKSGTASVVCLLNNFYPREAKVQWKVDNALQSGNSQESVTEQDSKDSTYSLSSTLTLSKADYEKHKVYACEVTHQGLSSPVTKSFNRGEC
B14: CDH17H2/TR2v5-(IgG1 KO) (bispecific antibody)
heavy: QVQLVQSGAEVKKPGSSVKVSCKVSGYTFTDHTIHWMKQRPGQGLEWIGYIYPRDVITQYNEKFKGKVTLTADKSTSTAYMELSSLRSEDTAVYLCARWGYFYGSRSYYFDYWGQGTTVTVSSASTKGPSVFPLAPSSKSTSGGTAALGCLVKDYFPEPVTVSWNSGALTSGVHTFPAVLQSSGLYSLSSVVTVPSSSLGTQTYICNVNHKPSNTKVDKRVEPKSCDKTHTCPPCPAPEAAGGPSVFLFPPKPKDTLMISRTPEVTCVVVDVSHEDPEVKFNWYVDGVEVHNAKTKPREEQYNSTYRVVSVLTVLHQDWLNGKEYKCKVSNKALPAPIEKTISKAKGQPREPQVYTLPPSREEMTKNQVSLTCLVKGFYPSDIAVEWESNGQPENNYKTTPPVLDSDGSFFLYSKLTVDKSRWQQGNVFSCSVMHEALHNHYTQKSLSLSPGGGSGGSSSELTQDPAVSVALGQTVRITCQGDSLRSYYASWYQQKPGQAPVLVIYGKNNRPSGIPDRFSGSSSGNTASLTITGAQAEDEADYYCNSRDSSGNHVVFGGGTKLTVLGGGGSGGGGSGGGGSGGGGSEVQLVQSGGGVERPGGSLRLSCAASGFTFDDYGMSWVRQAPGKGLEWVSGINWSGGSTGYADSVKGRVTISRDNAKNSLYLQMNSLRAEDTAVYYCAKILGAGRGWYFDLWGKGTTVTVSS
light: DIQMTQSQSSLSASVGDRVGITCKASQNVGTAVAWYQQKPGKAPKLLIYSASNRYTGVPSRFSGSGSGTDFTLTISSLQPKDFATYFCQQYSSYPWTFGQGTKLEIKRTVAAPSVFIFPPSDEQLKSGTASVVCLLNNFYPREAKVQWKVDNALQSGNSQESVTEQDSKDSTYSLSSTLTLSKADYEKHKVYACEVTHQGLSSPVTKSFNRGEC
B15: CDH17H2/TR2v6-(IgG1 KO) (bispecific antibody)
heavy: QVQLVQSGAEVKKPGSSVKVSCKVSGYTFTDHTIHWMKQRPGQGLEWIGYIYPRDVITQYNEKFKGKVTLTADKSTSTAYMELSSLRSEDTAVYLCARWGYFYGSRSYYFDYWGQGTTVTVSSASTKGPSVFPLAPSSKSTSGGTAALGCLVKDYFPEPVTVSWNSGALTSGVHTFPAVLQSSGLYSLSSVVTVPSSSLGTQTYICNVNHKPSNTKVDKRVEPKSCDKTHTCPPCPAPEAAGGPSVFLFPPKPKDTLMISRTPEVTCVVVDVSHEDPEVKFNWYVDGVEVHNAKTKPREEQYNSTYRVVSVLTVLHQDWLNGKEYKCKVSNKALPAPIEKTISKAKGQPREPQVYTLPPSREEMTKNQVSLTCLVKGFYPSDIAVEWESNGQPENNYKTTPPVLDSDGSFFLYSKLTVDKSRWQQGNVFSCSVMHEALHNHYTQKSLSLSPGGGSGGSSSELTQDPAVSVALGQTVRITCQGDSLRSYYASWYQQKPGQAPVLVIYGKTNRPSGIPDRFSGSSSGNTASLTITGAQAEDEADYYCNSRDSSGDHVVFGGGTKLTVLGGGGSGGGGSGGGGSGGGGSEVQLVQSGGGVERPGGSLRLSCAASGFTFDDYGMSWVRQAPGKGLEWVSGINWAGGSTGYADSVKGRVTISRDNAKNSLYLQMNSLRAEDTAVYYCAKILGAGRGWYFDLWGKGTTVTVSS
light: DIQMTQSQSSLSASVGDRVGITCKASQNVGTAVAWYQQKPGKAPKLLIYSASNRYTGVPSRFSGSGSGTDFTLTISSLQPKDFATYFCQQYSSYPWTFGQGTKLEIKRTVAAPSVFIFPPSDEQLKSGTASVVCLLNNFYPREAKVQWKVDNALQSGNSQESVTEQDSKDSTYSLSSTLTLSKADYEKHKVYACEVTHQGLSSPVTKSFNRGEC
B16: CDH17H2/TR2v7-(IgG1 KO) (bispecific antibody)
heavy: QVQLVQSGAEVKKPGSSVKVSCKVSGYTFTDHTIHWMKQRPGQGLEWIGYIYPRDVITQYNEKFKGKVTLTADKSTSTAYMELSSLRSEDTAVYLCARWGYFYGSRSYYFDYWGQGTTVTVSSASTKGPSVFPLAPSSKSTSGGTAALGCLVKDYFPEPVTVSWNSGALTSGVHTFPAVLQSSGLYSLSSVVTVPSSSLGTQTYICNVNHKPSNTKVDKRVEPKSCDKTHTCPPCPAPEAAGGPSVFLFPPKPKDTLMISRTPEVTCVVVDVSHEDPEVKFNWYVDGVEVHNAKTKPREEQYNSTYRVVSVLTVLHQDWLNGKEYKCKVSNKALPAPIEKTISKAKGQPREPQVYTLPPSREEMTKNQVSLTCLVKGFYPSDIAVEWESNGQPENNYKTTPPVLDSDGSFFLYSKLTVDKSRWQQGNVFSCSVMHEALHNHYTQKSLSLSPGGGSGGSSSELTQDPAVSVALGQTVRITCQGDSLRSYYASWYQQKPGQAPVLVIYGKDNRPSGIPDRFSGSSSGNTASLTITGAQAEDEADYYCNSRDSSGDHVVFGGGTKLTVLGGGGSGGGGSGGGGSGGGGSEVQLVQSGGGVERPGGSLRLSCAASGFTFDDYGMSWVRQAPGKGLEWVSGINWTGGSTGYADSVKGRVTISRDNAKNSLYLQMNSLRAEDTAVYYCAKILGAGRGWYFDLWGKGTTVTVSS
light: DIQMTQSQSSLSASVGDRVGITCKASQNVGTAVAWYQQKPGKAPKLLIYSASNRYTGVPSRFSGSGSGTDFTLTISSLQPKDFATYFCQQYSSYPWTFGQGTKLEIKRTVAAPSVFIFPPSDEQLKSGTASVVCLLNNFYPREAKVQWKVDNALQSGNSQESVTEQDSKDSTYSLSSTLTLSKADYEKHKVYACEVTHQGLSSPVTKSFNRGEC
B17: anti-TRAILR2 antibody (anti-TR2v2) (antibody, V domains shown)
VH: EVQLVQSGGGVERPGGSLRLSCAASGFTFDDYGMSWVRQAPGKGLEWVSGINWNGGSTGYADSVKGRVTISRDNAKNSLYLQMNSLRAEDTAVYYCAKILGAGRGWYFDLWGKGTTVTVSS
VL: SSELTQDPAVSVALGQTVRITCQGDSLRSYYASWYQQKPGQAPVLVIYGKNNRPSGIPDRFSGSSSGNTASLTITGAQAEDEADYYCNSRDSSGNHVVFGGGTKLTVL

How the values were obtained:
[1] = target: TNF-related apoptosis-inducing ligand receptor 2 (TRAILR2) (human, UniProt O14763 56-440); experiment: cell-based or functional assay
cadherin-17 (CDH17) = cadherin-17 (CDH17) (human, UniProt Q12864 23-832); experiment: cell-based or functional assay

Binder | cell viability of Colo-205 cells, 24 h (CellTiter-Glo) [1] [fold] | cell viability of Colo-205 cells, 24 h (CellTiter-Glo) (cadherin-17 (CDH17)) [fold] | cell viability of Colo-205 cells, 24 h [1] [nM] | cell viability of Colo-205 cells, 24 h (cadherin-17 (CDH17)) [nM] | concentration needed for an effect on viability of HepG2 cells (CDH17 negative), 72 h [1] [nM]
B1 | > 1000 | > 1000 | – | – | –
B2 | – | – | 0.01 | 0.01 | –
B3 | – | – | 0.01 | 0.01 | –
B4 | – | – | 0.01 | 0.01 | –
B5 | – | – | 0.01 | 0.01 | –
B6 | – | – | 0.01 | 0.01 | –
B7 | – | – | 0.01 | 0.01 | –
B8 | – | – | 0.01 | 0.01 | –
B9 | – | – | 0.01 | 0.01 | –
B10 | – | – | 0.01 | 0.01 | –
B11 | – | – | 0.01 | 0.01 | > 1
B12 | – | – | 0.01 | 0.01 | > 1
B13 | – | – | 0.01 | 0.01 | > 1
B14 | – | – | 0.01 | 0.01 | > 1
B15 | – | – | 0.01 | 0.01 | > 1
B16 | – | – | 0.01 | 0.01 | > 1
B17 | – | – | 0.01 | – | –

From patent publication US11851495 (Boehringer Ingelheim, dated 2023)
